The target of assay [1] is T1, LSD1_(172-833), lysine-specific demethylase 1 (human, UniProt O60341-1 172-833). The assay is described as follows: cell-based or functional assay.
Assay [2] concerns the target T1, LSD1_(172-833), lysine-specific …. As to the kind of experiment: cell-based or functional assay. This is another data set of the same source.
Assay [3] shares this target. The assay is described as follows: enzyme inhibition kinetics (HRP-coupled fluorescence demethylation assay); 25 nM LSD1, substrate H3K4me1_(1-21), 25 mM Tris, 50 mM NaCl, 0.1 mg/mL BSA, pH 8, 1% DMSO; Ki by global fit of competitive inhibition for 1, 11, 24, 28, 31, 33, 34, else from IC50 by Cheng-Prusoff (substrate 20 μM). Particulars: both partners purified.
For assay [4], the target named is T2, LSD1_(172-833), lysine-specific demethylase 1 (human, UniProt O60341-1 172-833). As to the kind of experiment: SPR; LSD1 immobilised by amine coupling on CM5 (12 000-15 000 RU), peptides injected; TBS-T (25 mM Tris, 150 mM HCl as printed, 0.05% Tween-20, 1 mM DTT, pH 8.0), 15 °C; 1:1 Langmuir model or steady state; highest tested concentration 200 μM. Conditions: both partners purified.

Assay [5] deals with T1, LSD1_(172-833), lysine-specific …. The description is as above. Conditions: both partners purified. This is another data set of the same source.
Assay [6] concerns the target T2, LSD1_(172-833), lysine-specific …. The description is as above. Conditions: both partners purified. This is another data set of the same source.
The target is the same in assay [7]. As to the kind of experiment: enzyme inhibition kinetics (HRP-coupled fluorescence demethylation assay); 25 nM LSD1, substrate H3K4me1_(1-21), 25 mM Tris, 50 mM NaCl, 0.1 mg/mL BSA, pH 8, 1% DMSO; Ki by global fit of competitive inhibition for 1, 11, 24, 28, 31, 33, 34, else from IC50 by Cheng-Prusoff (substrate 20 μM). Conditions: both partners purified. This is another data set of the same source.

For assay [8] the target is unchanged. As to the kind of experiment: cell-based or functional assay. This is another data set of the same source.

Like-named read-outs stand apart in the source and are kept apart here. Numbered stars: 1 amine (or outer) side, 2 acyl side, 3 side chain; on linkers, the order of the positions; unused ones are H or OH. Bridge positions count the residues as written; N and C are the ends. Square brackets hold non-standard residues; d marks the D form. Ends that are not written are not given here. dNle(6-ylidene) = O=C([C@@H](CCCC=[*:3])N[*:1])[*:2]; Gly(pent-4-enyl) = C=CCCC[C@H](N)C(=O)O; Lys(N3) = [N-]=[N+]=NCCCC[C@H](N)C(=O)O; hPhe = N[C@@H](CCc1ccccc1)C(=O)O; Cit = NC(=O)NCCC[C@H](N)C(=O)O; AllylGly = C=CC[C@H](N)C(=O)O; Aoc(2) = CCCCCC[C@H](N)C(=O)O; Pra = C#CC[C@H](N)C(=O)O Bounds are passed on as bounds.

B1: stapled macrocycle 26 (stereoisomer of 23, D-pentenyl glycine at 3 and 6) (peptide)
chain: AR[dNle(6-ylidene)]MQ[dNle(6-ylidene)]ARKST-NH2
modifications: staple 3-6
Consider B1, for which, in assay [1], the “% inhibition of LSD1 demethylase activity at 100 μM peptide” value (from here on “% inhibition”) stood at 90%.

B2: lactam 34 (Arg8Cit-substituted analogue of peptide 28) (peptide)
chain: AREMQKA[Cit]KST-NH2
modifications: lactam 3-6
As a reminder, the Ki is a measure of affinity in units of concentration, obtained from inhibition or displacement. With B2, the “% inhibition” value in assay [2] was 97%. The molecule also yielded a Ki in assay [3] of 8 µM.

B3: triazole 36 (triazole-bridged H3_(1-11) K4M, propargylglycine at 3, azidolysine at 6) (peptide)
chain: AR[Pra]MQ[Lys(N3)]ARKST-NH2
modifications: triazole 3-6
As for B3, the “% inhibition” value in assay [2] is 70%. In assay [3], this molecule came in with a Ki of 30 µM.

B4: H3_(1-7) K4M (peptide 6) (peptide)
peptide: ARTMQTA
Usually Kd stands for the concentration at which binding is half-saturated. Read a high Kd as weaker binding. The molecule B4 displayed a Kd in assay [4] above 200 µM.

B5: H3_(1-15) K4M (peptide 2) (peptide)
peptide: ARTMQTARKSTGGKA
In assay [4], B5 registered a Kd of 5 µM.

B6: stapled peptide 19 (Ala1-Thr3 cyclization, 4-carbon olefin bridge) (peptide)
chain: [AllylGly]R[AllylGly]MQTARKST-NH2
modifications: staple 1-3
Turning to B6, in assay [1], the “% inhibition” value is 100%.

B7: H3_(1-13) K4M (peptide 3) (peptide)
peptide: ARTMQTARKSTGG
In assay [4], B7 came in with a Kd of 36 µM.

B8: stapled peptide 21 (Thr3-Thr6 cyclization, 4-carbon olefin bridge) (peptide)
chain: AR[AllylGly]MQ[AllylGly]ARKST-NH2
modifications: staple 3-6
In the case of B8, in assay [1], the “% inhibition” value was 95%.

B9: H3_(1-11) with 2-S-amino octanoic acid at position 4 (peptide 16) (peptide)
chain: ART[Aoc(2)]QTARKST-NH2
As to B9, the Kd in assay [5] was above 200 µM.

B10: peptide 22, linear precursor of 23 (pentenylglycine at positions 3 and 6 of H3_(1-11) K4M) (peptide)
chain: AR[Gly(pent-4-enyl)]MQ[Gly(pent-4-enyl)]ARKST-NH2
For the molecule B10, the “% inhibition” value in assay [1] was 100%.

B11: stapled macrocycle 23 (8-carbon olefin bridge between residues 3 and 6) (peptide)
chain: AR[Gly(pent-4-enyl)]MQ[Gly(pent-4-enyl)]ARKST-NH2
modifications: staple 3-6
Take B11: in assay [1], the “% inhibition” value was determined as 75%.

B12: H3_(1-11) K4 (peptide 9), wild-type 11-mer (peptide)
peptide: ARTKQTARKST-NH2
Turning to B12, the Kd in assay [4] is above 100 µM.

B13: A1P-substituted H3_(1-11) K4M (peptide 11) (peptide)
peptide: PRTMQTARKST-NH2
Molecule B13 yielded a Kd in assay [6] of 10 µM. Further, the Ki in assay [7] was found to be 8 µM.

B14: H3_(1-11) K4M (peptide 4) (peptide)
peptide: ARTMQTARKST
For B14, in assay [8], the “IC50 of inhibition of LSD1 demethylation of H3_(1-21) K4(Me), enzyme activity assay” value was above 100 µM.

B15: H3_(1-9) K4M (peptide 5) (peptide)
peptide: ARTMQTARK
Molecule B15 yielded a Kd in assay [4] above 200 µM.

B16: lactam 33 (Arg2Cit-substituted analogue of peptide 28) (peptide)
chain: A[Cit]EMQKARKST-NH2
modifications: lactam 3-6
As for B16, in assay [2], the “% inhibition” value is 97%. Moreover, the Ki in assay [3] was determined as 4.2 µM.

B17: H3_(2-21) K4M (peptide 7) (peptide)
peptide: Ac-RTMQTARKSTGGKAPRKQLA
Take B17: the Kd in assay [4] was found to be 45 µM.

B18: peptide 18, linear precursor of 19 (allylglycine at positions 1 and 3 of H3_(1-11) K4M) (peptide)
chain: [AllylGly]R[AllylGly]MQTARKST-NH2
B18: the “% inhibition” value in assay [1] was 98%.

B19: H3_(1-11) with L-homophenylalanine at position 4 (peptide 17) (peptide)
chain: ART[hPhe]QTARKST-NH2
As to B19, the Kd in assay [5] is above 200 µM.

B20: triazole 35 (triazole-bridged H3_(1-11) K4M, azidolysine at 3, propargylglycine at 6) (peptide)
chain: AR[Lys(N3)]MQ[Pra]ARKST-NH2
modifications: triazole 3-6
On to B20, for which the “% inhibition” value in assay [2] is below 30%. The Ki in assay [3] was above 100 µM.

Source of the values: paper PMC7057333 (ACS Omega, 2020).
